Reference: ChEMBL document CHEMBL2177050, “Understanding the binding of daunorubicin and doxorubicin to NADPH-dependent cytosolic reductases by computational methods” (Eur J Med Chem, 2012)

How the values were obtained:
[1] = molecular target: T1, Aldo-keto reductase family 1 member A1 (Homo sapiens) (UniProt P14550); test: Activity of human AKR1A1 expressed in Escherichia coli BL21 assessed per mg protein in presence of 0.2 mM NADPH
T1 sequence (whole entry): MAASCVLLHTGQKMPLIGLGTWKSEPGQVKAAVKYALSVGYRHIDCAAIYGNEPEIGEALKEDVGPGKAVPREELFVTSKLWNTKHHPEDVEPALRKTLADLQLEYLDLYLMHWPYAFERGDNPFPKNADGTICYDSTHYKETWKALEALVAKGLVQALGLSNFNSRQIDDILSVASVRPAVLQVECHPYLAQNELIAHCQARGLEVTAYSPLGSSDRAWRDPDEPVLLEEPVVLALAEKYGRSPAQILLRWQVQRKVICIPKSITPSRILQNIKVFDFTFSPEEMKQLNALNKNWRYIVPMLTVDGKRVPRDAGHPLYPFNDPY

[2] = substrate: COc1cccc2c1C(=O)c1c(O)c3c(c(O)c1C2=O)C[C@@](O)(C(=O)CO)C[C@@H]3O[C@H]1C[C@H](N)[C@H](O)[C@H](C)O1; test: Activity of GST-tagged aldo-keto reductase 1A1
[3] = substrate: COc1cccc2c1C(=O)c1c(O)c3c(c(O)c1C2=O)C[C@@](O)(C(=O)CO)C[C@@H]3O[C@H]1C[C@H](N)[C@H](O)[C@H](C)O1; test: (§1) Activity of human carbonyl reductase 1
[4] = substrate: COc1cccc2c1C(=O)c1c(O)c3c(c(O)c1C2=O)C[C@@](O)(C(C)=O)C[C@@H]3O[C@H]1C[C@H](N)[C@H](O)[C@H](C)O1; test: as §1
[5] = substrate: COc1cccc2c1C(=O)c1c(O)c3c(c(O)c1C2=O)C[C@@](O)(C(=O)CO)C[C@@H]3O[C@H]1C[C@H](N)[C@H](O)[C@H](C)O1; test: Activity of His-tagged carbonyl reductase 1
[6] = substrate: COc1cccc2c1C(=O)c1c(O)c3c(c(O)c1C2=O)C[C@@](O)(C(=O)CO)C[C@@H]3O[C@H]1C[C@H](N)[C@H](O)[C@H](C)O1; test: (§2) Activity of human recombinant His6-tagged carbonyl reductase 1 expressed in Escherichia coli BL21(DE3) using menadione as substrate by Michaelis-Menten plot analysis
[7] = substrate: COc1cccc2c1C(=O)c1c(O)c3c(c(O)c1C2=O)C[C@@](O)(C(C)=O)C[C@@H]3O[C@H]1C[C@H](N)[C@H](O)[C@H](C)O1; test: as §2

Q: How did the Activity [1] turn out when `COc1cccc2c1C(=O)c1c(O)c3c(c(O)c1C2=O)C[C@@](O)(C(=O)CO)C[C@@H]3O[C@H]1C[C@H](N)[C@H](O)[C@H](C)O1` was run?
A: Its Activity is 11 nmol/min.

Q: For `COc1cccc2c1C(=O)c1c(O)c3c(c(O)c1C2=O)C[C@@](O)(C(C)=O)C[C@@H]3O[C@H]1C[C@H](N)[C@H](O)[C@H](C)O1`, which Activity [1] is on record?
A: Its Activity is 120 nmol/min.

B1: Aldo-keto reductase family 1 member A1 (Homo sapiens), P14550 (protein)
chain: MAASCVLLHTGQKMPLIGLGTWKSEPGQVKAAVKYALSVGYRHIDCAAIYGNEPEIGEALKEDVGPGKAVPREELFVTSKLWNTKHHPEDVEPALRKTLADLQLEYLDLYLMHWPYAFERGDNPFPKNADGTICYDSTHYKETWKALEALVAKGLVQALGLSNFNSRQIDDILSVASVRPAVLQVECHPYLAQNELIAHCQARGLEVTAYSPLGSSDRAWRDPDEPVLLEEPVVLALAEKYGRSPAQILLRWQVQRKVICIPKSITPSRILQNIKVFDFTFSPEEMKQLNALNKNWRYIVPMLTVDGKRVPRDAGHPLYPFNDPY
Q: How did the Km [2] turn out when B1 was run?
A: The Km was 247 µM.

Q: What about the kcat [2] of the same molecule?
A: Its kcat is 0.000667 s⁻¹.

B2: Carbonyl reductase [NADPH] 1 (Homo sapiens), P16152 (protein)
chain: MSSGIHVALVTGGNKGIGLAIVRDLCRLFSGDVVLTARDVTRGQAAVQQLQAEGLSPRFHQLDIDDLQSIRALRDFLRKEYGGLDVLVNNAGIAFKVADPTPFHIQAEVTMKTNFFGTRDVCTELLPLIKPQGRVVNVSSIMSVRALKSCSPELQQKFRSETITEEELVGLMNKFVEDTKKGVHQKEGWPSSAYGVTKIGVTVLSRIHARKLSEQRKGDKILLNACCPGWVRTDMAGPKATKSPEEGAETPVYLALLPPDAEGPHGQFVSEKRVEQW
Q: What does the source list for B2?
A: Km [3]: 90 µM; Km [4]: 108 µM; kcat [4]: 1.27 s⁻¹; Km [5]: 167 µM; kcat [5]: 0.0103 s⁻¹; Km [6]: 287 µM; kcat [6]: 0.21 s⁻¹; Km [7]: 51 µM; kcat [7]: 1.94 s⁻¹
